Experimental data: patent publication US20120164754, “KIT AND METHOD OF DETERMINING NUCLEOTIDE SEQUENCE OF TARGET NUCLEIC ACID” (SAMSUNG ELECTRONICS CO., LTD., published 2012)

Molecular target: Zif268-HMGa1-mCherry fusion protein (Mus musculus? (Zif268) / Homo sapiens …)
Assay: SPR; about 140 nM; target immobilised on CM5 chip (Biacore)
Experimental: Affinity of the fusion proteins prepared in Example 1 to a target nucleic acid nucleotide sequence was measured using a surface plasmon resonance (SPR) system (Biacore) to determine the equilibrium dissociation constant, Kd, for forming the fusion protein-target nucleic acid complex. After immobilization of the target nucleic acid (SEQ ID NO. 9) to a CM5 chip, the fusion proteins were loaded into the microfluidic chamber of the SPR.

Zif268-HMGa1-mCherry fusion protein (Mus musculus? (Zif268) / Homo sapiens …), sequence (chain, as listed by the source): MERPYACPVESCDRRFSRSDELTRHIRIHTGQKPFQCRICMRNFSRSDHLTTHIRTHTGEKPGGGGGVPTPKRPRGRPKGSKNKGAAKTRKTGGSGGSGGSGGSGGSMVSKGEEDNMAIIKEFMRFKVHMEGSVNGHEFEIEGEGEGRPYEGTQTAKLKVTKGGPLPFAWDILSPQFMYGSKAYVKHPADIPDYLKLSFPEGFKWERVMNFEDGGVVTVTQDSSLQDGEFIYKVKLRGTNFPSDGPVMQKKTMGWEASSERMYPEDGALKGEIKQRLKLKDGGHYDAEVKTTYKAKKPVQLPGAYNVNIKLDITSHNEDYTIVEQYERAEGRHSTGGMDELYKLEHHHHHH

B1: target nucleic acid (Zif268 target) (dsDNA)
DNA 1: GTGTGTGTGTGATCTGCGTGGGCGGTAAG
DNA 2: CTTACCGCCCACGCAGATCACACACACAC
Binder B1 has a Kd of 140 nM.
